According to PMC12435366, “Maleic anhydride derived diphosphines: adaptable chelators for receptor-targeted ^99mTc, ^64Cu and ^188Re radiotracers” (Chemical Science, 2025):

System: PSMA-expressing tumours
Test: Ex vivo biodistribution across both mouse models (DU145-PSMA+ and LNCaP xenografts)
Format: in vivo, mice
Settings: both tracers, 2 h post-injection
Method: The biodistribution of [^99mTcO2(DP^An-PSMAt)2]^+ and [^99mTcO2(DP^MEP-PSMAt)2]^+ was studied using SPECT/CT imaging and ex vivo biodistribution methods. In these studies, [^99mTcO2(DP^An-PSMAt)2]^+ and [^99mTcO2(DP^MEP-PSMAt)2]^+ were used directly from kit-based formulations, without further purification, mimicking procedures used in clinical radiopharmacies and nuclear medicine departments. Mice were injected with [^99mTcO2(DP^An-PSMAt)2]^+ or [^99mTcO2(DP^MEP-PSMAt)2]^+ (4–5 MBq), containing 3 μg (2.6 nmol) of DP^An-PSMAt or 3.5 μg (2.6 nmol) of (DP^MEP-PSMAt) via the tail-vein, and culled 2 h post-injection, followed by dissection, organ/tissue weighing and counting. […]
For all animals, significant concentrations of ^99mTc radioactivity (2–5 %ID g^−1) were measured in PSMA-expressing tumours 2 h post-injection, and although ^99mTc tumour concentrations were consistently higher for animals administered [^99mTcO2(DP^An-PSMAt)2]^+, there were no statistically significant differences between [^99mTcO2(DP^An-PSMAt)2]^+ and [^99mTcO2(DP^MEP-PSMAt)2]^+ in either mouse model. For both tracers, there were also significant concentrations of ^99mTc radioactivity in the spleen, which is known to express low levels of PSMA and accumulate PSMA-targeted radiotracers,[9,10] and the liver. […]

Compound: COCCOc1ccc(P(/C(C(=O)O)=C(/C(=O)NCCOCCOCCOCCOCCC(=O)NCCCC[C@H](NC(=O)N[C@@H](CCC(=O)O)C(=O)O)C(=O)O)P(c2ccc(OCCOC)cc2)c2ccc(OCCOC)cc2)c2ccc(OCCOC)cc2)cc1 [[^99mTcO2(DP^MEP-PSMAt)2]^+, metal not drawn]
- ^99mTc radioactivity concentration in kidneys: 40–90 %ID g^−1

Compound: COc1ccc(P(/C(C(=O)O)=C(/C(=O)NCCOCCOCCOCCOCCC(=O)NCCCC[C@H](NC(=O)N[C@@H](CCC(=O)O)C(=O)O)C(=O)O)P(c2ccc(OC)cc2)c2ccc(OC)cc2)c2ccc(OC)cc2)cc1 [[^99mTcO2(DP^An-PSMAt)2]^+, metal not drawn]
- ^99mTc radioactivity concentration in kidneys: 40–90 %ID g^−1
